Measured values: patent US11306156

What was measured:
[1] = target: D3H44 light chain Q124E_Q160E_T180E with N-terminal HA or FLAG tag; experiment: LCCA (SPR tag readout), L1:L2 DNA 1:3, normalized to 1:1; competing light chain m9
[2] = target: D3H44 light chain Q124E_T178E with N-terminal HA or FLAG tag; experiment: as above
[3] = target: D3H44 light chain Q124E_T180E with N-terminal HA or FLAG tag; experiment: as above
[4] = target: D3H44 light chain Q124E_Q160E_T180E with N-terminal HA or FLAG tag; experiment: LCCA (SPR tag readout), L1:L2 DNA 1:9, normalized to 1:1; competing light chain m9
[5] = target: D3H44 light chain Q124E_T178E with N-terminal HA or FLAG tag; experiment: as above
[6] = target: D3H44 light chain Q124E_T180E with N-terminal HA or FLAG tag; experiment: as above
[7] = target: D3H44 light chain Q124R_T178R with N-terminal HA or FLAG tag; experiment: LCCA (SPR tag readout), L1:L2 DNA 1:3, normalized to 1:1; competing light chain m11
[8] = target: D3H44 light chain Q124E_T180E with N-terminal HA or FLAG tag; experiment: LCCA (SPR tag readout), L1:L2 DNA 1:3, normalized to 1:1; competing light chain m12
[9] = target: D3H44 light chain Q124K_T178R with N-terminal HA or FLAG tag; experiment: LCCA (SPR tag readout), L1:L2 DNA 1:3, normalized to 1:1; competing light chain m13
[10] = target: D3H44 light chain Q124R_Q160K_T178R with N-terminal HA or FLAG tag; experiment: as above
[11] = target: D3H44 light chain Q124R_T178R with N-terminal HA or FLAG tag; experiment: as above
[12] = target: D3H44 light chain T178R with N-terminal HA or FLAG tag; experiment: as above
[13] = target: D3H44 light chain Q124E_T180E with N-terminal HA or FLAG tag; experiment: LCCA (SPR tag readout), L1:L2 DNA 1:3, normalized to 1:1; competing light chain m14
[14] = target: D3H44 light chain Q124E_Q160E_T180E with N-terminal HA or FLAG tag; experiment: LCCA (SPR tag readout), L1:L2 DNA 1:3, normalized to 1:1; competing light chain m15
[15] = target: D3H44 light chain Q124R_T178K with N-terminal HA or FLAG tag; experiment: LCCA (SPR tag readout), L1:L2 DNA 1:3, normalized to 1:1; competing light chain m18
[16] = target: D3H44 light chain Q124R_T178R with N-terminal HA or FLAG tag; experiment: as above
[17] = target: D3H44 light chain T178R with N-terminal HA or FLAG tag; experiment: as above
[18] = target: D3H44 light chain Q124E_Q160E_T180E with N-terminal HA or FLAG tag; experiment: LCCA (SPR tag readout), L1:L2 DNA 1:3, normalized to 1:1; competing light chain m19
[19] = target: D3H44 light chain Q124E_T180E with N-terminal HA or FLAG tag; experiment: as above
[20] = target: D3H44 light chain Q124R_T178R with N-terminal HA or FLAG tag; experiment: LCCA (SPR tag readout), L1:L2 DNA 1:9, normalized to 1:1; competing light chain m11
[21] = target: D3H44 light chain Q124R_T178R with N-terminal HA or FLAG tag; experiment: LCCA (SPR tag readout), L1:L2 DNA 1:9, normalized to 1:1; competing light chain m13
[22] = target: D3H44 light chain Q124E_Q160E_T180E with N-terminal HA or FLAG tag; experiment: LCCA (SPR tag readout), L1:L2 DNA 1:9, normalized to 1:1; competing light chain m15
[23] = target: D3H44 light chain Q124R_T178K with N-terminal HA or FLAG tag; experiment: LCCA (SPR tag readout), L1:L2 DNA 1:9, normalized to 1:1; competing light chain m18
[24] = target: D3H44 light chain Q124R_T178R with N-terminal HA or FLAG tag; experiment: as above
[25] = target: D3H44 light chain T178R with N-terminal HA or FLAG tag; experiment: as above
[26] = target: D3H44 light chain Q124E_Q160E_T180E with N-terminal HA or FLAG tag; experiment: LCCA (SPR tag readout), L1:L2 DNA 1:9, normalized to 1:1; competing light chain m19
[27] = target: D3H44 light chain Q124E_Q160E_T180E, N-terminal HA or FLAG tag; experiment: LCCA, L1:L2 DNA 1:3, SPR of light chain tags; competing light chain m10
[28] = target: D3H44 light chain T178R, N-terminal HA or FLAG tag; experiment: LCCA, L1:L2 DNA 1:3, SPR of light chain tags; competing light chain m11
[29] = target: D3H44 light chain Q124E_Q160E_T180E, N-terminal HA or FLAG tag; experiment: LCCA, L1:L2 DNA 1:9, SPR of light chain tags; competing light chain m10
[30] = target: D3H44 light chain T178R, N-terminal HA or FLAG tag; experiment: LCCA, L1:L2 DNA 1:9, SPR of light chain tags; competing light chain m11

## D3H44 Fab heavy chain S186K with C-terminal ABD2-His6 tag
[1]
  H2L2:H2L1 normalized median ratio: 94%
[2]
  H2L2:H2L1 normalized median ratio: 96%
[3]
  H2L2:H2L1 normalized median ratio: 94%
[4]
  H2L2:H2L1 normalized median ratio: 94%
[5]
  H2L2:H2L1 normalized median ratio: 96%
[6]
  H2L2:H2L1 normalized median ratio: 89%
[7]
  H2L2:H2L1 normalized median ratio: 4%
[8]
  H2L2:H2L1 normalized median ratio: 98%
[9]
  H2L2:H2L1 normalized median ratio: 2%
[10]
  H2L2:H2L1 normalized median ratio: 3%
[11]
  H2L2:H2L1 normalized median ratio: 6%
[12]
  H2L2:H2L1 normalized median ratio: 4%
[13]
  H2L2:H2L1 normalized median ratio: 97%
[14]
  H2L2:H2L1 normalized median ratio: 92%
[15]
  H2L2:H2L1 normalized median ratio: 8%
[16]
  H2L2:H2L1 normalized median ratio: 6%
[17]
  H2L2:H2L1 normalized median ratio: 9%
[18]
  H2L2:H2L1 normalized median ratio: 91%
[19]
  H2L2:H2L1 normalized median ratio: 96%
[20]
  H2L2:H2L1 normalized median ratio: 4%
[21]
  H2L2:H2L1 normalized median ratio: 11%
[22]
  H2L2:H2L1 normalized median ratio: 89%
[23]
  H2L2:H2L1 normalized median ratio: 11%
[24]
  H2L2:H2L1 normalized median ratio: 6%
[25]
  H2L2:H2L1 normalized median ratio: 13%
[26]
  H2L2:H2L1 normalized median ratio: 87%

## D3H44 Fab heavy chain L143D_K145T_Q179E, C-terminal ABD2-His6 tag
[27]
  H1L1:H1L2 normalized median ratio: 11 share of 100
[28]
  H1L1:H1L2 normalized median ratio: 89 share of 100
  H1L1:H1L2 normalized median scalar value ln(r1/f1): 2.1
[29]
  H1L1:H1L2 normalized median ratio: 11 share of 100
[30]
  H1L1:H1L2 normalized median ratio: 89 share of 100
  H1L1:H1L2 normalized median scalar value ln(r1/f1): 2.09
